In the supplement of paper PMC11246515:
± gives the standard deviation of the averaged measurements.

Experiment: total protein half-life in vivo (active degradation + dilution); higher = more stable protein
[1] = E. coli NCM3722 delta-clpP, growth: N-lim chemostat, doubling time 6 h
[2] = E. coli NCM3722 delta-hslV, growth: N-lim chemostat, doubling time 6 h
[3] = E. coli NCM3722 delta-lon, growth: N-lim chemostat, doubling time 6 h
[4] = E. coli NCM3722 delta-smpB, growth: N-lim chemostat, doubling time 6 h
[5] = wild type E. coli NCM3722, growth: C-lim chemostat, doubling time 6 h
[6] = wild type E. coli NCM3722, growth: C-lim chemostat, doubling time 12 h
[7] = wild type E. coli NCM3722, growth: N-lim chemostat, doubling time 6 h
[8] = wild type E. coli NCM3722, growth: N-lim chemostat, doubling time 12 h
[9] = wild type E. coli NCM3722, growth: P-lim chemostat, doubling time 6 h
[10] = wild type E. coli NCM3722, growth: P-lim chemostat, doubling time 12 h
[11] = E. coli NCM3722 delta-clpP delta-lon delta-hslV, growth: N-lim chemostat, doubling time 6 h
[12] = wild type E. coli NCM3722, growth: C-lim chemostat, doubling time 3 h

Row | Sequence | total protein half-life in vivo [1] | total protein half-life in vivo [2] | total protein half-life in vivo [3] | total protein half-life in vivo [4] | total protein half-life in vivo [5] | total protein half-life in vivo [6] | total protein half-life in vivo [7] | total protein half-life in vivo [8] | total protein half-life in vivo [9] | total protein half-life in vivo [10] | total protein half-life in vivo [11] | total protein half-life in vivo [12]
1 | MLSGKDLGRAIEQAINKKIASGSVKSKAEVARHFKVQPPSIYDWIKKGSISKDKLPELWRFFSDVVGPEHWGLNEYPIPTPTNSDTKSELLDINNLYQAASDEIRAIVAFLLSGNATEPDWVDHDVRAYIAAMEMKVGKYLKALESERKSQNITKTGT | 4.75 h | 5.53 ± 0.81 h | 7.1 h | 5.32 h | 5.48 h | 9.89 h | 4.71 h | 8.69 h | 5.35 h | 10.4 ± 2 h | – | –
2 | MDHRLLEIIACPVCNGKLWYNQEKQELICKLDNLAFPLRDGIPVLLETEARVLTADESKS [P0AAZ7] | 5.82 ± 0.15 h | – | 4.19 ± 0.043 h | 4.65 ± 1.2 h | 4.73 ± 0.12 h | 8.88 ± 1.5 h | 3.05 ± 0.11 h | 6.3 ± 0.69 h | 3.69 ± 0.26 h | 7.87 ± 0.7 h | > 8 h | 1.64 ± 0.1 h
3 | MAKMRAVDAAMYVLEKEGITTAFGVPGAAINPFYSAMRKHGGIRHILARHVEGASHMAEGYTRATAGNIGVCLGTSGPAGTDMITALYSASADSIPILCITGQAPRARLHKEDFQAVDIEAIAKPVSKMAVTVREAALVPRVLQQAFHLMRSGRPGPVLVDLPFDVQVAEIEFDPDMYEPLPVYKPAASRMQIEKAVEMLIQAERPVIVAGGGVINADAAALLQQFAELTSVPVIPTLMGWGCIPDDHELMAGMVGLQTAHRYGNATLLASDMVFGIGNRFANRHTGSVEKYTEGRKIVHIDIEPTQIGRVLCPDLGIVSDAKAALTLLVEVAQEMQKAGRLPCRKEWVADCQQRKRTLLRKTHFDNVPVKPQRVYEEMNKAFGRDVCYVTTIGLSQIAAAQMLHVFKDRHWINCGQAGPLGWTIPAALGVCAADPKRNVVAISGDFDFQFLIEELAVGAQFNIPYIHVLVNNAYLGLIRQSQRAFDMDYCVQLAFENINSSEVNGYGVDHVKVAEGLGCKAIRVFKPEDIAPAFEQAKALMAQYRVPVVVEVILERVTNISMGSELDNVMEFEDIADNAADAPTETCFMHYE [P0AEP7] | 3.5 ± 0.04 h | 4.16 ± 0.24 h | 3.51 h | 3.85 ± 0.4 h | – | 7.8 ± 3.2 h | 3.45 h | 5.7 ± 0.37 h | 5.49 ± 0.69 h | 11.9 ± 2 h | 5.98 ± 0.97 h | 2.87 ± 0.1 h
4 | MELSSLTAVSPVDGRYGDKVSALRGIFSEYGLLKFRVQVEVRWLQKLAAHAAIKEVPAFAADAIGYLDAIVASFSEEDAARIKTIERTTNHDVKAVEYFLKEKVAEIPELHAVSEFIHFACTSEDINNLSHALMLKTARDEVILPYWRQLIDGIKDLAVQYRDIPLLSRTHGQPATPSTIGKEMANVAYRMERQYRQLNQVEILGKINGAVGNYNAHIAAYPEVDWHQFSEEFVTSLGIQWNPYTTQIEPHDYIAELFDCVARFNTILIDFDRDVWGYIALNHFKQKTIAGEIGSSTMPHKVNPIDFENSEGNLGLSNAVLQHLASKLPVSRWQRDLTDSTVLRNLGVGIGYALIAYQSTLKGVSKLEVNRDHLLDELDHNWEVLAEPIQTVMRRYGIEKPYEKLKELTRGKRVDAEGMKQFIDGLALPEEEKARLKAMTPANYIGRAITMVDELK [P0AB89] | 5.24 ± 0.62 h | 5.18 ± 0.54 h | 5.11 ± 0.4 h | 4.63 ± 0.12 h | 5.55 ± 0.32 h | 10.5 ± 0.86 h | 4.64 ± 0.062 h | 8.57 ± 0.16 h | 5.79 ± 0.6 h | 12.25 ± 0.033 h | 4.77 ± 0.41 h | 3.01 ± 0.1 h
5 | MKIFLENLYHSDCYFLPIRDNQQVLVGVELITHFSSEDGTVRIPTSRVIAQLTEEQHWQLFSEQLELLKSCQHFFIQHKLFAWLNLTPQVATLLLERDNYAGELLKYPFIELLINENYPHLNEGKDNRGLLSLSQVYPLVLGNLGAGNSTMKAVFDGLFTRVMLDKSFIQQQITHRSFEPFIRAIQAQISPCCNCIIAGGIDTAEILAQITPFDFHALQGCLWPAVPINQITTLVQR | 4.111 ± 0.0084 h | 3.897 ± 0.0064 h | 4.44 ± 0.36 h | 3.866 ± 0.031 h | 6.47 ± 1.4 h | 9.89 h | 4.22 ± 0.84 h | 7.69 ± 1.8 h | 5.87 ± 0.37 h | 11.5 ± 0.35 h | 4.97 ± 0.65 h | 2.99 ± 0.1 h
6 | MESNNGEAKIQKVKNWSPVWIFPIVTALIGAWVLFYHYSHQGPEVTLITANAEGIEGGKTTIKSRSVDVGVVESATLADDLTHVEIKARLNSGMEKLLHKDTVFWVVKPQIGREGISGLGTLLSGVYIELQPGAKGSKMDKYDLLDSPPLAPPDAKGIRVILDSKKAGQLSPGDPVLFRGYRVGSVETSTFDTQKRNISYQLFINAPYDRLVTNNVRFWKDSGIAVDLTSAGMRVEMGSLTTLLSGGVSFDVPEGLDLGQPVAPKTAFVLYDDQKSIQDSLYTDHIDYLMFFKDSVRGLQPGAPVEFRGIRLGTVSKVPFFAPNMRQTFNDDYRIPVLIRIEPERLKMQLGENADVVEHLGELLKRGLRGSLKTGNLVTGALYVDLDFYPNTPAITGIREFNGYQIIPTVSGGLAQIQQRLMEALDKINKLPLNPMIEQATSTLSESQRTMKNLQTTLDSMNKILASQSMQQLPTDMQSTLRELNRSMQGFQPGSAAYNKMVADMQRLDQVLRELQPVLKTLNEKSNALVFEAKDKKDPEPKRAKQ | 7 ± 0.91 h | – | 6.43 ± 0.21 h | 5.75 ± 0.35 h | 7.13 ± 0.87 h | 12.8 ± 1.1 h | 5.99 ± 0.28 h | 12.9 ± 0.71 h | 6.06 ± 0.058 h | – | 6.4 ± 0.49 h | 3.341 ± 0.027 h
